Key:
TC-71 cells = assay: Activation of caspase-3 and caspase-7; assay type: cell-based; conditions: increasing concentrations, 48 hours, compared to isotype control
Method: (§1) To evaluate the basis for the cytotoxic effect of MEDI-573 on RD-ES, TC-71, SJSA-1, and KHOS cells, cells were treated with increasing concentrations of MEDI-573 for 48 hours and analyzed by measuring the activation of caspase-3 and caspase-7. […] (Data not shown.)

RD-ES cells = assay: Activation of caspase-3 and caspase-7; assay type: cell-based; conditions: increasing concentrations, 48 hours, compared to isotype control
Method: as §1

KHOS cells = assay: Activation of caspase-3 and caspase-7; assay type: cell-based; conditions: increasing concentrations, 48 hours
Method: as §1

SJSA-1 cells = assay: Activation of caspase-3 and caspase-7; assay type: cell-based; conditions: increasing concentrations, 48 hours, compared to isotype control
Method: as §1

[1] = system: RD-ES (Ewing's sarcoma) xenografts; assay: Xenograft efficacy study in mice; assay type: in vivo
From the text: Although proliferation of SK-ES-1 and SJCRH30 cells was inhibited by MEDI-573 in vitro in the absence of exogenous IGFs, the in vivo growth of these two models was not effected by MEDI-573 treatment.
The combination treatments were tolerated as no significant body weight loss was observed (FIG. 17B).
For in vivo efficacy studies, five million sarcoma cells in 50% matrigel were inoculated subcutaneously into each female athymic nude mice. When tumors reach approximately 150-200 mm^3, mice were randomly assigned into groups (10 mice per group). MEDI-573 was administrated intraperitoneally twice per week at indicated doses. The dose regimen for AZD2014 was oral once every day, for rapamycin was intraperitoneal injection every 3 days. Tumor volumes were measured twice weekly with calipers. Tumor growth inhibition was calculated on the last day of study relative to the initial and final mean tumor volume of the control group.

pS6K = assay: In vivo mechanism of action study, immunoblot of tumors; conditions: RD-ES-bearing mice injected with human IGF-1/-2, MEDI-573 pretreatment
Method: IGF-1/-2 injection did change the baseline level of p4EBP-1.
For in vivo mechanism of action (MOA) studies, when tumors reached approximately 400 mm^3, a single dose of MEDI-573 was given. Tumor and plasma samples were collected 4 hr after dosing to assess the effect of MEDI-573 on autocrine IGF signaling. In another set of mice, 6 hr after MEDI-573 dosing, human IGF-1 or IGF-2 was injected by tail-vein. Tumor and plasma samples were collected 15 min after IGFs injection to assess the effect of MEDI-573 on IGF-1/-2 induced signaling.

B1: MEDI-573: fully human monoclonal IgG2 lambda antibody that binds IGF-2 with cross reactivity to IGF-1; hybridoma 7.159.2, ATCC PTA-7424 (antibody)
heavy: QVQLVQSGAEVKKPGASVKVSCKASGYTFTSYDINWVRQATGQGLEWMGWMNPNSGNTGYAQKFQGRVTMTRNTSISTAYMELSSLRSEDTAVYYCARDPYYYYYGMDVWGQGTTVTVSSASTKGPSVFPLAPCSRSTSESTAALGCLVKDYFPEPVTVSWNSGALTSGVHTFPAVLQSSGLYSLSSVVTVPSSNFGTQTYTCNVDHKPSNTKVDKTVERKCCVECPPCPAPPVAGPSVFLFPPKPKDTLMISRTPEVTCVVVDVSHEDPEVQFNWYVDGVEVHNAKTKPREEQFNSTFRVVSVLTVVHQDWLNGKEYKCKVSNKGLPAPIEKTISKTKGQPREPQVYTLPPSREEMTKNQVSLTCLVKGFYPSDIAVEWESNGQPENNYKTTPPMLDSDGSFFLYSKLTVDKSRWQQGNVFSCSVMHEALHNHYTQKSLSLSPGK
light: QSVLTQPPSVSAAPGQKVTISCSGSSSNIENNHVSWYQQLPGTAPKLLIYDNNKRPSGIPDRFSGSKSGTSATLGITGLQTGDEADYYCETWDTSLSAGRVFGGGTKLTVLGQPKAAPSVTLFPPSSEELQANKATLVCLISDFYPGAVTVAWKADSSPVKAGVETTTPSKQSNNKYAASSYLSLTPEQWKSHRSYSCQVTHEGSTVEKTVAPTECS
caspase-3/-7 activities (TC-71 cells): increased caspase-3/-7 activities in a dose-dependent manner
caspase-3/-7 activities (RD-ES cells): increased caspase-3/-7 activities in a dose-dependent manner
caspase-3/-7 activities (KHOS cells): No activation of caspase-3/-7 was detected
caspase-3/-7 activities (SJSA-1 cells): increased caspase-3/-7 activities in a dose-dependent manner
tumor growth inhibition ([1]; RD-ES xenograft model, AZD2014 combination study (FIG. 16A)): 52%
tumor growth inhibition ([1]; RD-ES xenograft model, rapamycin combination study (FIG. 17A)): 59%
tumor growth inhibition ([1]; RD-ES xenografts, 10 mg/kg twice weekly intraperitoneally): 25%
tumor growth inhibition ([1]; RD-ES xenografts, 30 mg/kg twice weekly intraperitoneally): 44%
tumor growth inhibition ([1]; RD-ES xenografts, 60 mg/kg twice weekly intraperitoneally): 52%
IGF-induced pS6K in tumors (pS6K): dramatic reduction

From patent US20160324962A1, “COMPOSITIONS AND METHODS FOR TREATING SARCOMA” (MEDIMMUNE, LLC, priority 2013, published 2016)
